# In PMC9613975:
# Tests used:
# [1] = molecular target: PacII S subunit (HsdS), full length, C-terminal 6His tag (assembly analysis) (Pseudomonas alcaligenes NEB585); assay: SEC; only two subunits co-expressed in E. coli (M1 with S, or M2 with S), purified by the same strategy as the wild-type PacII MTase; SEC
# [2] = molecular target: PacII S subunit (HsdS), full length, C-terminal 6His tag (assembly analysis) (Pseudomonas alcaligenes NEB585); assay: SEC; S subunit alone on size-exclusion chromatography; monomer-dimer equilibrium
stoichiometry N [1] [M1 per S],stoichiometry N [2],Substance
1,,"PacII M1 subunit (HsdM1), full length, construct without the 6His-SUMO tag (assembly analysis) (natural protein)"
,2,"PacII S subunit (HsdS), full length, C-terminal 6His tag (assembly analysis) (natural protein)"
